{"source": "patent US20110212106A1", "about": "(INSTITUTE FOR RESEARCH IN BIOSCIENCE, published 2011)", "target": "T1, peptide … (HIV-1)", "T1 construct": "also called wt peptide", "assay": "Pepscan ELISA", "data": [{"binder": "HGN194 (antibody, V domains shown, also called HGN194.12) VH: EVQLVQSGAEVKKPGESLKISCYGSGYNFNDYWIGWVRQMPGKGLEWMGMIYPDDSDTKYSAAFEGQVTLSADKSISTAYLQWTSLRASDTATYYCARLDGDYADFDSWGQGTLVTVSS VL: QSVLTQPPSVSAAPGQKVTISCSGTNSNLGDKFVSWYQQLPGTAPRLLIYDNDKRPSGIPDRFSGSKSGASATLAITGLQTGDEADYYCGTWDNSLSALFGGGTKLTVL", "values": [{"measurement": "binding result", "value": "binds"}]}]}
